# Test results published in patent US20250011397A1 (HOSPITAL FOR SICK CHILDREN, published 2025).
# Numbering of substitutions follows the chain as printed. Several values for one entry are separate records, joined by “and”; a condition that tells them apart may be missing. Identical values can stand only once.
# B1: MB 120 (other)
# heavy: QVQLVQSGAEVKKPGASVKVSCKASGYTFTSYDINWVRQAPGQGLEWMGMIDPSGGSTSYAQKFQGRVTMTRDTSTSTVYMELSSLRSEDTAVYYCAKDFGGGTRYDYWYFDLWGRGTLVTVSSASTKGPSVFPLAPSSKSTSGGTAALGCLVKDYFPEPVTVSWNSGALTSGVHTFPAVLQSSGLYSLSSVVTVPSSSLGTQTYICNVNHKPSNTKVDKKVEPKSC
# light: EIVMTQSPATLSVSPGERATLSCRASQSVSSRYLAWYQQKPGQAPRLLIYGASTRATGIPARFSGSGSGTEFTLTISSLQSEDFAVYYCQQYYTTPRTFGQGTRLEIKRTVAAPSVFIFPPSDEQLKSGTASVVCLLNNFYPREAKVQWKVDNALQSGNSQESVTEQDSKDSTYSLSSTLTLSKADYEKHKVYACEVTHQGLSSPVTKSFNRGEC
# B2: MB 128 (other)
# heavy: QVQLVQSGAEVKKPGASVKVSCKASGYTFTHYYMHWVRQAPGQGLEWMGIINPSSSSASYSQKFQGRVTMTRDTSTSTVYMELSSLRSEDTAVYYCARDGRYGSGSYPFDYWGQGTLVTVSSASTKGPSVFPLAPSSKSTSGGTAALGCLVKDYFPEPVTVSWNSGALTSGVHTFPAVLQSSGLYSLSSVVTVPSSSLGTQTYICNVNHKPSNTKVDKKVEPKSC
# light: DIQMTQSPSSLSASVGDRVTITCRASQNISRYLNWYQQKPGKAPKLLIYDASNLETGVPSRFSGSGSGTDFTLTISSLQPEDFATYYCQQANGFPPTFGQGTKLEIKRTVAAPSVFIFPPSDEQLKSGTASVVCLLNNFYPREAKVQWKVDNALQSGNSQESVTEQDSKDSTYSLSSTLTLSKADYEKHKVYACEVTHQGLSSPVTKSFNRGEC
# B3: MB 160 (other)
# heavy: QVQLVQSGAEVKKPGASVKVSCKASGYTFTGHDMHWVRQAPGQGLEWMGIINPSGGSTSYAQKFQGRVTMTRDTSTSTVYMELSSLRSEDTAVYYCARANSLRYYYGMDVWGQGTMVTVSSASTKGPSVFPLAPSSKSTSGGTAALGCLVKDYFPEPVTVSWNSGALTSGVHTFPAVLQSSGLYSLSSVVTVPSSSLGTQTYICNVNHKPSNTKVDKKVEPKSC
# light: DIQMTQSPSSLSASVGDRVTITCRASQSVSSWLAWYQQKPGKAPKLLIYAASSLQSGVPSRFSGSGSGTDFTLTISSLQPEDFATYYCQQGYTTPYTFGQGTKLEIKRTVAAPSVFIFPPSDEQLKSGTASVVCLLNNFYPREAKVQWKVDNALQSGNSQESVTEQDSKDSTYSLSSTLTLSKADYEKHKVYACEVTHQGLSSPVTKSFNRGEC
# B4: MB 254 (other)
# heavy: EVQLLESGGGLVQPGGSLRLSCAASGFTFSSSAMHWVRQAPGKGLEWVSAIGTGGDTYYADSVKGRFTISRDNSKNTLYLQMNSLRAEDTAVYYCAREGDGYNFYFDYWGQGTLVTVSSASTKGPSVFPLAPSSKSTSGGTAALGCLVKDYFPEPVTVSWNSGALTSGVHTFPAVLQSSGLYSLSSVVTVPSSSLGTQTYICNVNHKPSNTKVDKKVEPKSC
# light: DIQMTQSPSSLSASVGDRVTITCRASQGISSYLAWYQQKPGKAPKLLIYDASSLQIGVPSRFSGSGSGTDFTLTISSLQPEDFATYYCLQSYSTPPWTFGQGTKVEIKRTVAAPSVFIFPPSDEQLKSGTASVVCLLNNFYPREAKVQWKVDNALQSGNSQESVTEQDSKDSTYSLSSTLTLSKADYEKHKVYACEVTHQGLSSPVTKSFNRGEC
# B5: MB 349 (other)
# heavy: EVQLLESGGGLVQPGGSLRLSCAASGFTFSNYGMHWVRQAPGKGLEWVSGISSAGSITNYADSVKGRFTISRDNSKNTLYLQMNSLRAEDTAVYYCAGNHAGTTVTSEYFQHWGQGTLVTVSSASTKGPSVFPLAPSSKSTSGGTAALGCLVKDYFPEPVTVSWNSGALTSGVHTFPAVLQSSGLYSLSSVVTVPSSSLGTQTYICNVNHKPSNTKVDKKVEPKSC
# light: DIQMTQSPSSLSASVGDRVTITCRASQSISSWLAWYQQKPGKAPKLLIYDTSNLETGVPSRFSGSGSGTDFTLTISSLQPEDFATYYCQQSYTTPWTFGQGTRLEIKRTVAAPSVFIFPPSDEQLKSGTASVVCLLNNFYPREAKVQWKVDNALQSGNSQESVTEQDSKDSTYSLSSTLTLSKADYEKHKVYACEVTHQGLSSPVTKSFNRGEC
# B6: MB 108 (other)
# heavy: QVQLVQSGAEVKKPGASVKVSCKASGYIFSRYAIHWVRQAPGQGLEWMGWMNPISGNTDYAPNFQGRVTMTRDTSTSTVYMELSSLRSEDTAVYYCAKDGSQLAYLVEYFQHWGQGTLVTVSSASTKGPSVFPLAPSSKSTSGGTAALGCLVKDYFPEPVTVSWNSGALTSGVHTFPAVLQSSGLYSLSSVVTVPSSSLGTQTYICNVNHKPSNTKVDKKVEPKSC
# light: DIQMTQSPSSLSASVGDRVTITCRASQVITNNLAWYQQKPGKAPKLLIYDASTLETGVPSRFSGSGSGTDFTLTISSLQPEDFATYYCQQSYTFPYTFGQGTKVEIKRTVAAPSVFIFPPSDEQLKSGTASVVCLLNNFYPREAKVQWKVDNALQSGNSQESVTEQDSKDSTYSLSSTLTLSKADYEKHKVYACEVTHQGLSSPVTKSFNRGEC
# B7: MB 56 (other)
# heavy: QVQLVQSGAEVKKPGASVKVSCKASGYTFTSYGISWVRQAPGQGLEWMGWISAYNGNTNYAQKLQGRVTMTRDTSTSTVYMELSSLRSEDTAVYYCARDIGPIDYWGQGTLVTVSSASTKGPSVFPLAPSSKSTSGGTAALGCLVKDYFPEPVTVSWNSGALTSGVHTFPAVLQSSGLYSLSSVVTVPSSSLGTQTYICNVNHKPSNTKVDKKVEPKSC
# light: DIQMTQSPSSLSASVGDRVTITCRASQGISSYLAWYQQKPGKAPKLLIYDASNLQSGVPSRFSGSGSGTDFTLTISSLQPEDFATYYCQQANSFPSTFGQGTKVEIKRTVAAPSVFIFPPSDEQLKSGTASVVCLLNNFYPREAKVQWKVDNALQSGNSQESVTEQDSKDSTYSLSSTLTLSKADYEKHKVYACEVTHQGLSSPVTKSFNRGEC
# B8: mAb 368 (antibody, V domains shown)
# VH: QVQLVQSGAEVKKPGSSVKVSCKASGYTFTSYDINWVRQAPGQGLEWMGAIMPMFGTANYAQKFQGRVTITADESTSTAYMELSSLRSEDTAVYYCARGSSGYYYGWGQGTLVTVSS
# VL: not shown
# B9: MB 178 (other)
# heavy: QVQLVQSGAEVKKPGASVKVSCKASGYTFTDYHMHWVRQAPGQGLEWMGWINPNSGGTNYAQKFQGRVTMTRDTSTSTVYMELSSLRSEDTAVYYCARDISSWYEITKFDPWGQGTLVTVSSASTKGPSVFPLAPSSKSTSGGTAALGCLVKDYFPEPVTVSWNSGALTSGVHTFPAVLQSSGLYSLSSVVTVPSSSLGTQTYICNVNHKPSNTKVDKKVEPKSC
# light: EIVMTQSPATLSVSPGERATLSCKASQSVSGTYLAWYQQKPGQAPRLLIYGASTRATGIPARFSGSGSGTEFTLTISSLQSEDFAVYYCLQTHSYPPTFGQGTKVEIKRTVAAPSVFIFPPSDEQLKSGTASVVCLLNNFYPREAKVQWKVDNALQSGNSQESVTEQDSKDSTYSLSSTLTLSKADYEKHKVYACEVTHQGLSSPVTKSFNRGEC
# B10: mAb 349 (antibody, V domains shown)
# VH: EVQLLESGGGLVQPGGSLRLSCAASGFTFSNYGMHWVRQAPGKGLEWVSGISSAGSITNYADSVKGRFTISRDNSKNTLYLQMNSLRAEDTAVYYCAGNHAGTTVTSEYFQHWGQGTLVTVSS
# VL: DIQMTQSPSSLSASVGDRVTITCRASQSISSWLAWYQQKPGKAPKLLIYDTSNLETGVPSRFSGSGSGTDFTLTISSLQPEDFATYYCQQSYTTPWTFGQGTRLEIKR
# notes: also called IgG 349
# B11: mAb 160 (antibody, V domains shown)
# VH: QVQLVQSGAEVKKPGASVKVSCKASGYTFTGHDMHWVRQAPGQGLEWMGIINPSGGSTSYAQKFQGRVTMTRDTSTSTVYMELSSLRSEDTAVYYCARANSLRYYYGMDVWGQGTMVTVSS
# VL: B10 VL with I29V, D50A, T51A, N53S, E55Q, T56S, S91G, W96Y, R103K
# notes: also called IgG 160
# B12: mAb 108 (antibody, V domains shown)
# VH: QVQLVQSGAEVKKPGASVKVSCKASGYIFSRYAIHWVRQAPGQGLEWMGWMNPISGNTDYAPNFQGRVTMTRDTSTSTVYMELSSLRSEDTAVYYCAKDGSQLAYLVEYFQHWGQGTLVTVSS
# VL: B10 VL with S28V, S30T, S31N, W32N, T51A, N53T, T94F, W96Y, R103K, L104V
# B13: mAb 128 (antibody, V domains shown)
# VH: QVQLVQSGAEVKKPGASVKVSCKASGYTFTHYYMHWVRQAPGQGLEWMGIINPSSSSASYSQKFQGRVTMTRDTSTSTVYMELSSLRSEDTAVYYCARDGRYGSGSYPFDYWGQGTLVTVSS
# VL: DIQMTQSPSSLSASVGDRVTITCRASQNISRYLNWYQQKPGKAPKLLIYDASNLETGVPSRFSGSGSGTDFTLTISSLQPEDFATYYCQQANGFPPTFGQGTKLEIKR
# B14: mAb 56 (antibody, V domains shown)
# VH: QVQLVQSGAEVKKPGASVKVSCKASGYTFTSYGISWVRQAPGQGLEWMGWISAYNGNTNYAQKLQGRVTMTRDTSTSTVYMELSSLRSEDTAVYYCARDIGPIDYWGQGTLVTVSS
# VL: B13 VL with N28G, R31S, N34A, E55Q, T56S, G93S, P96S, L104V
# notes: also called IgG 56
# B15: MB 192 (other)
# heavy: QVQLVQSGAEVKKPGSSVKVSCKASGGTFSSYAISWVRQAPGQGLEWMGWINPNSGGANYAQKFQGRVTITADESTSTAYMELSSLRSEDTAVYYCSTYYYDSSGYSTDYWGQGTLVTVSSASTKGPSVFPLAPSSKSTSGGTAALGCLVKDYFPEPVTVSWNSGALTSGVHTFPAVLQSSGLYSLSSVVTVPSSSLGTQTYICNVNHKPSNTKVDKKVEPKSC
# light: DIVMTQSPLSLPVTPGEPASISCRSSQSLLHSNGYNYLDWYLQKPGQSPQLLIYAASSLQSGVPDRFSGSGSGTDFTLKISRVEAEDVGVYYCMQALQTPYTFGQGTKLEIKRTVAAPSVFIFPPSDEQLKSGTASVVCLLNNFYPREAKVQWKVDNALQSGNSQESVTEQDSKDSTYSLSSTLTLSKADYEKHKVYACEVTHQGLSSPVTKSFNRGEC
# B16: MB 180 (other)
# heavy: QVQLVQSGAEVKKPGSSVKVSCKASGYTFTSYAMHWVRQAPGQGLEWMGRISPRSGGTKYAQRFQGRVTITADESTSTAYMELSSLRSEDTAVYYCAREAVAGTHPQAGDFDLWGRGTLVTVSSASTKGPSVFPLAPSSKSTSGGTAALGCLVKDYFPEPVTVSWNSGALTSGVHTFPAVLQSSGLYSLSSVVTVPSSSLGTQTYICNVNHKPSNTKVDKKVEPKSC
# light: B15 light with M94Q, A96Y, L97Y, Q98S, T99S
# B17: mAb 178 (antibody, V domains shown)
# VH: QVQLVQSGAEVKKPGASVKVSCKASGYTFTDYHMHWVRQAPGQGLEWMGWINPNSGGTNYAQKFQGRVTMTRDTSTSTVYMELSSLRSEDTAVYYCARDISSWYEITKFDPWGQGTLVTVSS
# VL: EIVMTQSPATLSVSPGERATLSCKASQSVSGTYLAWYQQKPGQAPRLLIYGASTRATGIPARFSGSGSGTEFTLTISSLQSEDFAVYYCLQTHSYPPTFGQGTKVEIKR
# notes: also called IgG 178
# B18: MB 158 (other)
# heavy: QVQLVQSGAEVKKPGASVKVSCKASGYTFTGYYMHWVRQAPGQGLEWMGWINPLNGGTNFAPKFQGRVTMTRDTSTSTVYMELSSLRSEDTAVYYCARDPGGSYSNDAFDIWGQGTLVTVSSASTKGPSVFPLAPSSKSTSGGTAALGCLVKDYFPEPVTVSWNSGALTSGVHTFPAVLQSSGLYSLSSVVTVPSSSLGTQTYICNVNHKPSNTKVDKKVEPKSC
# light: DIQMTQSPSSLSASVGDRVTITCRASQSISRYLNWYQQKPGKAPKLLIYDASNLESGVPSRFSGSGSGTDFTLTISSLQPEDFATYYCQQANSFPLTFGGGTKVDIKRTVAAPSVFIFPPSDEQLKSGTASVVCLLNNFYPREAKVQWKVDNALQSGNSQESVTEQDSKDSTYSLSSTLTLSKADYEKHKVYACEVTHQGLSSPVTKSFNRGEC
# Target: T1, SARS-CoV-2 Spike on HIV-based pseudotyped virus (Spike plasmid BEI NR52310) (SARS-CoV-2, UniProt P0DTC2 14-1273)
# Experiment: cell-based or functional assay
row,Binder,Median IC50 (PsV neutralization)
1,B1,7.2 µg/mL and 3.1 nM
2,B2,1.5 nM and 3.5 µg/mL
3,B3,0.22 µg/mL and 96 pM
4,B4,9.3 µg/mL and 4 nM
5,B5,> 50 µg/mL and > 0.33 µM
6,B6,0.37 µg/mL and 161 pM
7,B7,> 50 µg/mL and > 0.33 µM
8,B8,> 50 µg/mL and > 333 nM
9,B9,1.7 µg/mL and 0.74 nM
10,B10,> 50 µg/mL and > 333 nM
11,B11,> 50 µg/mL and > 333 nM
12,B12,> 50 µg/mL and > 333 nM
13,B13,> 50 µg/mL and > 333 nM
14,B14,> 50 µg/mL and > 333 nM
15,B15,0.79 µg/mL and 343 pM
16,B16,0.89 µg/mL and 387 pM
17,B17,> 50 µg/mL and > 333 nM
18,B18,0.1 µg/mL and 43 pM

# Target: T1, SARS-CoV-2 Spike on HIV-based …
# Experiment: cell-based or functional assay
# Remark: another data set of the same source
Binder,"IC50 SARS-CoV2 PsV (µg/mL), MB [µg/mL]","IC50 SARS-CoV2 PsV (µg/mL), IgG [µg/mL]"
B1,7.2,–
B2,3.5,–
B3,0.22,–
B4,9.3,–
B5,> 50,–
B6,0.37,–
B7,> 50,–
B8,–,> 50
B9,1.7,–
B10,–,> 50
B11,–,> 50
B12,–,> 50
B13,–,> 50
B14,–,> 50
B15,0.79,–
B16,0.89,–
B17,–,> 50
B18,0.1,–
